Results from US20260022175A1 (Chugai, published 2026).

T1: human FcγRIIa H extracellular domain (human, UniProt P12318 34-217)
T1 construct: extracellular domain; also called hFcγR IIa H
T1 sequence (looked up): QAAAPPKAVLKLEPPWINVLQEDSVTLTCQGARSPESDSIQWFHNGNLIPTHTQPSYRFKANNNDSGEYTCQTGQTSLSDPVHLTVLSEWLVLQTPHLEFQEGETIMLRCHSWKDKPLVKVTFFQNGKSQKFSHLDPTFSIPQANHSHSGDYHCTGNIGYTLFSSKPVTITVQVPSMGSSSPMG

T2: human FcγRIIa R extracellular domain (human, UniProt P12318 34-217)
T2 construct: extracellular domain; also called hFcγR IIa R
T2 sequence (looked up): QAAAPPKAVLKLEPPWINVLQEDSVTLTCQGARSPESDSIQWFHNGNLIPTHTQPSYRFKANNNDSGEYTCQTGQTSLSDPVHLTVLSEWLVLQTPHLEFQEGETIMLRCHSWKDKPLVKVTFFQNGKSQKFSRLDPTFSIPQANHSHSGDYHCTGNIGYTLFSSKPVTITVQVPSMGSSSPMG

T3: human FcγRIIb extracellular domain (human, UniProt P31994 43-217)
T3 construct: extracellular domain; also called hFcγR IIb
T3 sequence (looked up): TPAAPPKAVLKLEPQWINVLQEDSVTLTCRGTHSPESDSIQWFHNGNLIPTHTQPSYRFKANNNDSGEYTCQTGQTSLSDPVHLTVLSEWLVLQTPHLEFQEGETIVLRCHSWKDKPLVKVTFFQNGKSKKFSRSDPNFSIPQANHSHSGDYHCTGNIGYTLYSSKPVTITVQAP

T4: hFcγRIIaH on hFcγRIIaH-expressing Jurkat cells (human, UniProt P12318 34-317)
T4 sequence (looked up): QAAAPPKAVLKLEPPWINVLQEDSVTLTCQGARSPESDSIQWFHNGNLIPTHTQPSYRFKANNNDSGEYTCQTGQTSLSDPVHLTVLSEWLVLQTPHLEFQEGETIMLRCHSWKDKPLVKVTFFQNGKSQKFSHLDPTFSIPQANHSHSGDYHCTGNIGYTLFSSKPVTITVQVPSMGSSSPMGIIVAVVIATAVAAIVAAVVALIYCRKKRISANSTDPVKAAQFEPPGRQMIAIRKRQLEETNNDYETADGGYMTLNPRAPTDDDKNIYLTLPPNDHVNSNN


Columns and labels:
[1] = target: T5, human FcγRIIIa F extracellular domain (human, UniProt P08637 17-208); experiment: SPR Biacore 8K+; KD of G1d divided by KD of this antibody;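 note: antibodies captured on an anti-Fab-kappa streptavidin chip, soluble FcγR ectodomains flowed over, KD by steady-state fit for FcγRIIb and Langmuir kinetic model for the other receptors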
T5 construct: extracellular domain; also called hFcγR IIIa F

[2] = target: T6, human FcγRIIIa V extracellular domain (human, UniProt P08637 17-208); experiment: as above
T6 construct: extracellular domain; also called hFcγR IIIa V

[3] = target: T1, human FcγRIIa H extracellular domain; experiment: as above
[4] = target: T7, human FcγRIa extracellular domain (human, UniProt P12314 16-292); experiment: as above
T7 construct: extracellular domain; also called hFcγR Ia; hFcγRIa

[5] = target: T2, human FcγRIIa R extracellular domain; experiment: as above
[6] = target: T3, human FcγRIIb extracellular domain; experiment: as above
[7] = target: T8, human C1q protein (Calbiochem) (human, UniProt P02745 23-245; P02746 28-253; P02747 29-245); experiment: ELISA: antibody coated on the plate at the varied concentration, hC1q 3 µg/mL added, detected with HRP-conjugated anti-hC1q antibody, O.D (450-690nm)
T8 construct: bought; also called hC1q
Method: The antigen used was a human C1q protein (hC1q).
First, a 96-well maxisorp plate (Thermo fisher) was coated at 4° C. overnight with 50 μL of solutions containing each antibody prepared at 30, 10, 3, 1, 0.3, 0.1, and 0.03 μg/mL in PBS. Each well of the plate was washed with Wash buffer to remove the antibody not bound to the plate, and then the wells were blocked with 200 μL of Blocking/dilution Buffer at room temperature for 2 hours or longer. After the Blocking/dilution Buffer was removed from each well, hC1q (Calbiochem) prepared such that the final concentration was 3 μg/mL in Blocking/dilution Buffer was added at 50 μL per well. The plate was then allowed to stand at room temperature for 1 hour to allow hC1q to bind to the antibody within each well. After washing with Wash Buffer, 50 μL of an HRP-conjugated anti-hC1q antibody (AbDSerotec) diluted with Blocking/dilution Buffer was added to each well, and the plate was incubated while standing for 1 hour. After washing with Wash Buffer, TMB single solution (Invitrogen) was added. The color development reaction of the solution in each well was stopped by addition of Stop Buffer, and then the developed color was measured by absorbance at 450 nm and 690 nm.

[8] = target: T5, human FcγRIIIa F extracellular domain; experiment: SPR Biacore 8K+, antibody captured, FcγR as analyte, 1:1 Langmuir model;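 note: antibodies captured on a streptavidin chip through a biotinylated anti-human Fab kappa reagent, with FcγR extracellular domains injected in pH 7.4 phosphate buffer at 25 °C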
Method: (§1) The interaction between the produced antibodies and human FcγRs was analyzed using Biacore 8K+ by the method below. For the running buffer, 50 mM Na-Phosphate, 150 mM NaCl, and 0.05% Tween20 (pH 7.4) was used, and measurement was performed at 25° C. The sensor chip used was a Series S SA chip (GE Healthcare) onto which CaptureSelect Human Fab-kappa Kinetics Biotin Conjugate (Thermo Fisher Scientific) was immobilized. An antibody of interest was captured onto this chip, and each FcγR diluted with the running buffer was allowed to interact with it. The chip was regenerated using 10 mM Glycine-HCl (pH 1.5), and repeatedly used to capture antibodies and perform measurement. The dissociation constants KD (mol/L) of each antibody for FcγRs were calculated using Biacore Insight Evaluation Software, with a steady state affinity model for the dissociation constant for FcγRIIb and a 1:1 Langmuir binding model for the dissociation constants for the other FcγRs (Table 48).

[9] = target: T6, human FcγRIIIa V extracellular domain; experiment: as above
Method: as §1

[10] = target: T1, human FcγRIIa H extracellular domain; experiment: as above
Method: as §1

[11] = target: T7, human FcγRIa extracellular domain; experiment: as above
Method: as §1

[12] = target: T2, human FcγRIIa R extracellular domain; experiment: as above
Method: as §1

[13] = target: T3, human FcγRIIb extracellular domain; experiment: SPR Biacore 8K+, antibody captured, FcγR as analyte, steady state affinity model
[14] = target: T4, hFcγRIIaH on hFcγRIIaH-expressing …; experiment: cell-based or functional assay
[15] = target: hFcγRIIIaV on hFcγRIIIaV-expressing Jurkat cells (human, UniProt P08637 17-254); experiment: cell-based or functional assay
[16] = target: T5, human FcγRIIIa F extracellular domain; experiment: SPR Biacore 8K+; KD for FcγRIIb divided by KD for this FcγR;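 note: antibodies captured on an anti-human Fab kappa SA chip with soluble human FcγR ectodomains flowed over, FcγRIIb KD from steady-state fit, other FcγR KD from Langmuir model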
[17] = target: T6, human FcγRIIIa V extracellular domain; experiment: as above
[18] = target: T1, human FcγRIIa H extracellular domain; experiment: as above
[19] = target: T2, human FcγRIIa R extracellular domain; experiment: as above

T6 sequence (P08637 17-208 F176V limits assumed): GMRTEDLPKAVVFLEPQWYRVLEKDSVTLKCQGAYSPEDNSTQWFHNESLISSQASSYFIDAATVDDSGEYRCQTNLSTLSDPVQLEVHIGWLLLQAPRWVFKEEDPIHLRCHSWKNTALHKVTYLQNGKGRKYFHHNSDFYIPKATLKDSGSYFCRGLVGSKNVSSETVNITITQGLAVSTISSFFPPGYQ
T7 sequence (P12314 16-292): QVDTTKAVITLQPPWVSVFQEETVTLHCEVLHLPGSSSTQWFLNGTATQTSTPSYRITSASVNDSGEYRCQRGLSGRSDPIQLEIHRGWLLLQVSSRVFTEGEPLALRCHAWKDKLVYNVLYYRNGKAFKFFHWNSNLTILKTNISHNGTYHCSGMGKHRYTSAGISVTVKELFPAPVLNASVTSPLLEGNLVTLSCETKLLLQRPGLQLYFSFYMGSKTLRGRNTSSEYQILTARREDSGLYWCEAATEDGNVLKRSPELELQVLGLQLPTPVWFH
T5 sequence (P08637 17-208): as the sequence (P08637 17-208 F176V limits assumed) above, with V160F counted along it
Chain of hFcγRIIIaV on hFcγRIIIaV-expressing Jurkat cells (P08637 17-254, form in doubt): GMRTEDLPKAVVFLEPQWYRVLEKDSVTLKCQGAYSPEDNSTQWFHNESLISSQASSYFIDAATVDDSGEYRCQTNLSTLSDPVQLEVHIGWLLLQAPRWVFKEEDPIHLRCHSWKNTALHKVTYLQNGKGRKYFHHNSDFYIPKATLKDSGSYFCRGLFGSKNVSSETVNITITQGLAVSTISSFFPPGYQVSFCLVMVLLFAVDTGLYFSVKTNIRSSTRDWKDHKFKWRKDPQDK
T8 sequence (P02745 23-245 limits assumed, chain 1 of 3): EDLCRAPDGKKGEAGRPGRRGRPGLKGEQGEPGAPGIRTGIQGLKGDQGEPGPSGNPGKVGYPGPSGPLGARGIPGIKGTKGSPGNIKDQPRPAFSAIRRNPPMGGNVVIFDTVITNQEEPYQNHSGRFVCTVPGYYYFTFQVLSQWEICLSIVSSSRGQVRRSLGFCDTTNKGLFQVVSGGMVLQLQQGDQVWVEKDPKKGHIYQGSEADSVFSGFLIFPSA
T8 sequence (P02746 28-253 limits assumed, chain 2 of 3): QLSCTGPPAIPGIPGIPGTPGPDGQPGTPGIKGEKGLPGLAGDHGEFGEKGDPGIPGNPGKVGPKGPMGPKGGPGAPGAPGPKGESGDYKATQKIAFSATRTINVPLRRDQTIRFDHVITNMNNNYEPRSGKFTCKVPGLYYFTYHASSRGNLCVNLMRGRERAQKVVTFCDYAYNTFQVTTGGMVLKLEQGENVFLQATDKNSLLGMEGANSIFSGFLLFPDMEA
T8 sequence (P02747 29-245 limits assumed, chain 3 of 3): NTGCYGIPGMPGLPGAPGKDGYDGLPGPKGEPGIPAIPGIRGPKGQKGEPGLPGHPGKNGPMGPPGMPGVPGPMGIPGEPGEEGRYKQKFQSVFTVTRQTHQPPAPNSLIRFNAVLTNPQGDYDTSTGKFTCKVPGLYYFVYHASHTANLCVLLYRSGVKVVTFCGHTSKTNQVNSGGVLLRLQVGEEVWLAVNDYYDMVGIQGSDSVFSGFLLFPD

Row | Relative value to KD between G1d and hFcgRs [1] | Relative value to KD between G1d and hFcgRs [2] | Relative value to KD between G1d and hFcgRs [3] | Relative value to KD between G1d and hFcgRs [4] | Relative value to KD between G1d and hFcgRs [5] | Relative value to KD between G1d and hFcgRs [6] | binding result [7] | Kd [8] [nM] | Kd [9] [nM] | Kd [10] [nM] | Kd [11] [nM] | Kd [12] [nM] | Kd [13] [nM] | EC50 value (hFcγRIIaH ADCP Reporter Bioassay, Hepa1-6/hEREG target cells) [14] [µg/mL] | EC50 value (hFcγRIIIaV ADCC Reporter Bioassay, Hepa1-6/hEREG target cells) [15] [µg/mL] | A/I ratio (KD for FcγRIIb divided by KD for each FcγR) [16] | A/I ratio (KD for FcγRIIb divided by KD for each FcγR) [17] | A/I ratio (KD for FcγRIIb divided by KD for each FcγR) [18] | A/I ratio (KD for FcγRIIb divided by KD for each FcγR) [19] | Binder
1 | 141 | 97.5 | 4.9 | 2.4 | 1.3 | 0.7 | binds | 21 | 3.67 | 231 | 0.0381 | 1270 | 14600 | 0.0367 | 0.000413 | 694 | 3970 | 63.3 | 11.5 | H240-Kn496/L73-k0//H240-Hl516/L73-k0 (antibody, human IgG1, kappa, also called EGL-ART11; ART11) heavy 1: QDQLVQSGAEVKKPGASVKVSCKASGFNIKDTYIQWVRQAPGQGLEWMGRIDPLRKQTKYREKFEGRVTITADTSTNTAYMELSSLRSEDTAVYYCVRSGREFDYWGQGTLVTVSSASTKGPSVFPLAPSSKSTSGGTAALGCLVKDYFPEPVTVSWNSGALTSGVHTFPAVLQSSGLYSLSSVVTVPSSSLGTQTYICNVNHKPSNTKVDKKVEPKSCDKTHTCPPCPAPEFQWGPMVFLFPPKPKDVLMISRTPEVTCVVVDVSDEEPEVKFNWYVDGVEVHNAKTKPREEQYNATYRVVSVLPVLHQDWLNGKEYKCKVSNKALPAPIEKTISKAKGQPREPQVCTLPPSRDELTKNQVSLWCLVKGFYPSDIAVEWESNGQPENNYKTTPPVLDSDGSFFLYSKLTVDKSRWQQGNVFSCSVMHEALHNHYTQKSLSLSP heavy 2: QDQLVQSGAEVKKPGASVKVSCKASGFNIKDTYIQWVRQAPGQGLEWMGRIDPLRKQTKYREKFEGRVTITADTSTNTAYMELSSLRSEDTAVYYCVRSGREFDYWGQGTLVTVSSASTKGPSVFPLAPSSKSTSGGTAALGCLVKDYFPEPVTVSWNSGALTSGVHTFPAVLQSSGLYSLSSVVTVPSSSLGTQTYICNVNHKPSNTKVDKKVEPKSCDKTHTCPPCPAPELLGGPSVFLFPPKPKDVLMISRTPEVTCVVVDVSHEEPEVKFNWYVDGVEVHNAKTKPREEQYNATYRVVSVLPVLHQDWLNGKEYKCKVSNDALPAPIEETISKAKGQPREPQVYTLPPSRCELTKNQVSLSCAVKGFYPSDIAVEWESNGQPENNYKTTPPVLDSDGSFFLVSKLTVDKSRWQQGNVFSCSVMHEALHNHYTQKSLSLSP light: DIQMTQSPSSLSASVGDRVTITCRASQDIHKYIAWYQQKPGQAPRLLIQYTSTLQPGVPSRFSGSGSGTDYTFTISSLQPEDIATYYCLQYEQLRTFGGGTKVEIKRTVAAPSVFIFPPSDEQLKSGTASVVCLLNNFYPREAKVQWKVDNALQSGNSQESVTEQDSKDSTYSLSSTLTLSKADYEKHKVYACEVTHQGLSSPVTKSFNRGEC
2 | 1290 | 566 | 2.7 | 3.4 | 1.5 | 1.4 | binds | 2.29 | 0.634 | 420 | 0.0267 | 1100 | 7250 | 0.0419 | 0.000107 | 3160 | 11400 | 17.3 | 6.6 | H240-Kn494/L73-k0//H240-Hl514/L73-k0 (antibody, human IgG1, kappa, also called EGL-ART10; ART10) heavy 1: QDQLVQSGAEVKKPGASVKVSCKASGFNIKDTYIQWVRQAPGQGLEWMGRIDPLRKQTKYREKFEGRVTITADTSTNTAYMELSSLRSEDTAVYYCVRSGREFDYWGQGTLVTVSSASTKGPSVFPLAPSSKSTSGGTAALGCLVKDYFPEPVTVSWNSGALTSGVHTFPAVLQSSGLYSLSSVVTVPSSSLGTQTYICNVNHKPSNTKVDKKVEPKSCDKTHTCPPCPAPEFQWGPMVFLFPPKPKDVLMISRTPEVTCVVVDVSDEEPEVKFNWYVDGVEVHNAKTKPREEQYNATYRVVSVLPVLHQDWLNGKEYKCKVSNKALPAPEEKTISKAKGQPREPQVCTLPPSRDELTKNQVSLWCLVKGFYPSDIAVEWESNGQPENNYKTTPPVLDSDGSFFLYSKLTVDKSRWQQGNVFSCSVMHEALHNHYTQKSLSLSP heavy 2: QDQLVQSGAEVKKPGASVKVSCKASGFNIKDTYIQWVRQAPGQGLEWMGRIDPLRKQTKYREKFEGRVTITADTSTNTAYMELSSLRSEDTAVYYCVRSGREFDYWGQGTLVTVSSASTKGPSVFPLAPSSKSTSGGTAALGCLVKDYFPEPVTVSWNSGALTSGVHTFPAVLQSSGLYSLSSVVTVPSSSLGTQTYICNVNHKPSNTKVDKKVEPKSCDKTHTCPPCPAPELLGGPSVFLFPPKPKDVLMISRTPEVTCVVVDVSHEEPEVKFNWYVDGVEVHNAKTKPREEQYNATYRVVSVLPVLHQDWLNGKEYKCKVSNDALPAPEEETISKAKGQPREPQVYTLPPSRCELTKNQVSLSCAVKGFYPSDIAVEWESNGQPENNYKTTPPVLDSDGSFFLVSKLTVDKSRWQQGNVFSCSVMHEALHNHYTQKSLSLSP light: DIQMTQSPSSLSASVGDRVTITCRASQDIHKYIAWYQQKPGQAPRLLIQYTSTLQPGVPSRFSGSGSGTDYTFTISSLQPEDIATYYCLQYEQLRTFGGGTKVEIKRTVAAPSVFIFPPSDEQLKSGTASVVCLLNNFYPREAKVQWKVDNALQSGNSQESVTEQDSKDSTYSLSSTLTLSKADYEKHKVYACEVTHQGLSSPVTKSFNRGEC
